# Values of other authors as cited in publication PMC4253632.
# Target: Syntaxin 4 (Homo sapiens) (UniProt Q12846)
# UniProt Q12846, sequence (Q12846 whole entry): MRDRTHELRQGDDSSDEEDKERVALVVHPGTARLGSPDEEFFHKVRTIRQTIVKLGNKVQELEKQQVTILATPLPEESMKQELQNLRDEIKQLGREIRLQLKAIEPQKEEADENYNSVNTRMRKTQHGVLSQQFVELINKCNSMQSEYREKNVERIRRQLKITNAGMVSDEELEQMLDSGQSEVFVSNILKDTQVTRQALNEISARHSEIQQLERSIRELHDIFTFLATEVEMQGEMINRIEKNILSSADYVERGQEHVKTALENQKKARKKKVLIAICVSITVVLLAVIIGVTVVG
substance,measurement,value
Munc18c (from UniProt O00186),Kd,30 nM
